Laboratory results reported in patent US20220017615A1 (SHANGHAI PHARMAEXPLORER, published 2022).

What was measured:
[1] = target: T1, biotin-labeled CD47 extracellular domain protein (CD47-ECD) (UniProt Q08722 19-139, limits assumed, biotin-labeled (sites not given)); assay: blocking ELISA, biotin-CD47-ECD on coated SIRPα-hFc; Ab 0 nM
T1 construct: extracellular domain; also called CD47 protein

[2] = target: T2, His-tagged CD47 recombinant protein, CD47-His (human, UniProt Q08722 19-141, limits assumed); assay: ELISA on coated CD47-His; Ab 0.004 nM
T2 construct: it is not restated for CD47-His; also called human CD47-His protein; antigen CD47-His; not shown: His tag

[3] = target: T3, cynomolgus CD47, on CHOK1-cCD47 stable cell line (cynomolgus); assay: FACS CHOK1-cCD47; Ab 200 nM
T3 construct: whole, on cells; check before use; also called CHOK1/cynoCD47; monkey-derived CD47
Description: (§1) The CHOK1-hCD47 stable cell lines and CHOK1-cCD47 stable cell lines were expanded to 90% confluence in a T-75 cell culture flask, the medium was exhausted, washed twice with HBSS buffer (Hanks balanced salt solution) (purchased from Invitrogen), and then treated and collected with enzyme-free cell dissociation solution (Versene solution: purchased from Life technology). The cells were washed twice with HBSS buffer. After counted, the cells were diluted with HBSS to 2×10⁶ cells per ml, added with 1% goat serum blocking solution, wherein the percentage was the mass percantage, incubated on ice for 30 minutes, and then washed twice with HBSS by centrifugation. […] The plate was washed 3 times with FACS buffer by centrifugation, added with 100 μl fixative solution [4% (v/v) Paraformaldehyde] per well to suspend the cells. 10 minutes later, it was washed twice with FACS buffer by centrifugation. The cells were suspended with 100 microliters of FACS buffer, FACS (FACS Calibur, purchased from BD) was used for detection and the results were analyzed.

[4] = target: T4, human CD47, full length, on transfected cells (human, UniProt Q08722 19-323); assay: FACS CHOK1-hCD47; Ab 0.0128 nM
T4 construct: whole, on cells; also called CHOK1-hCD47
Description: as §1

[5] = target: T2, His-tagged CD47 recombinant protein, …; assay: ELISA on coated CD47-His; Ab 0.107 nM
Description: (§2) The plate was sealed with plastic film and incubated at 4° C. overnight. The plate was washed twice with plate washing solution [PBS+0.01% (v/v) Tween20] the next day, and blocking solution [PBS+0.01% (v/v) Tween20 +1% (w/w) BSA] was added to block it at room temperature for 2 hours. […] After incubation at 37° C. for 2 hours, the plates were washed three times with plate washing solution [PBS+0.01% (v/v) Tween 20]. HRP (horseradish peroxidase) labeled secondary antibody (purchased from Sigma) was added, incubated at 37° C. for 2 hours, and then washed three times with plate washing solution [PBS+0.01% (v/v) Tween 20]. 1000 of TMB substrate was added to each well. After incubated at room temperature for 30 minutes, the plate was added with 100 μl of stop solution (1.0N HCl) to each well.

[6] = target: T4, human CD47, full length, on transfected …; assay: FACS CHOK1-hCD47; Ab 40 nM
Description: as §1

[7] = target: T4, human CD47, full length, on transfected …; assay: FACS CHOK1-hCD47; Ab 0.32 nM
Description: as §1

[8] = target: T4, human CD47, full length, on transfected …; assay: FACS CHOK1-hCD47; Ab 200 nM
Description: as §1

[9] = target: T3, cynomolgus CD47, on CHOK1-cCD47 stable …; assay: FACS CHOK1-cCD47; Ab 40 nM
Description: as §1

[10] = target: T4, human CD47, full length, on transfected …; assay: FACS CHOK1-hCD47; Ab 0.064 nM
Description: as §1

[11] = target: T3, cynomolgus CD47, on CHOK1-cCD47 stable …; assay: FACS CHOK1-cCD47; Ab 0 nM (background)
Description: as §1

[12] = target: T3, cynomolgus CD47, on CHOK1-cCD47 stable …; assay: FACS CHOK1-cCD47; Ab 0.32 nM
Description: as §1

[13] = target: T1, biotin-labeled CD47 extracellular …; assay: blocking ELISA, biotin-CD47-ECD on coated SIRPα-hFc; Ab 40 nM
Description: (§3) The plate was sealed with plastic film and incubated at 4° C. overnight. The plate was washed twice with plate washing solution [PBS+0.01% (v/v) Tween20] on the next day, and blocking solution [PBS+0.01% (v/v) Tween20 +1% (w/w) BSA] was added to block it at room temperature for 2 hours. […] After incubation at 37° C. for 2 hours, the plate was washed three times with the plate washing solution [PBS+0.01% (v/v) Tween 20]. HRP (horseradish peroxidase) labeled avidin diluent (purchased from Sigma) was added as 100 microliters per well, and after the plate was incubated for 2 hours at 37° C., it was washed 3 times with washing solution [PBS+0.01% (v/v) Tween 20]. 100 μl of TMB substrate was added to each well. After incubated at room temperature for 30 minutes, the plate was added with 100 μl of stop solution (1.0N HCl) to each well.

[14] = target: T1, biotin-labeled CD47 extracellular …; assay: blocking ELISA, biotin-CD47-ECD on coated SIRPα-hFc; Ab 0.0128 nM
Description: as §3

[15] = target: T1, biotin-labeled CD47 extracellular …; assay: blocking ELISA, biotin-CD47-ECD on coated SIRPα-hFc; Ab 0.32 nM
Description: as §3

[16] = target: T3, cynomolgus CD47, on CHOK1-cCD47 stable …; assay: FACS CHOK1-cCD47; Ab 0.0128 nM
Description: as §1

[17] = target: T4, human CD47, full length, on transfected …; assay: FACS CHOK1-hCD47; Ab 0 nM (background)
Description: as §1

[18] = target: T3, cynomolgus CD47, on CHOK1-cCD47 stable …; assay: FACS CHOK1-cCD47; Ab 0.064 nM
Description: as §1

[19] = target: T4, human CD47, full length, on transfected …; assay: FACS CHOK1-hCD47; Ab 8 nM
Description: as §1

[20] = target: T1, biotin-labeled CD47 extracellular …; assay: blocking ELISA, biotin-CD47-ECD on coated SIRPα-hFc; Ab 0.064 nM
Description: as §3

[21] = target: T3, cynomolgus CD47, on CHOK1-cCD47 stable …; assay: FACS CHOK1-cCD47; Ab 8 nM
Description: as §1

[22] = target: T2, His-tagged CD47 recombinant protein, …; assay: ELISA on coated CD47-His; Ab 0.533 nM
Description: as §2

[23] = target: T1, biotin-labeled CD47 extracellular …; assay: blocking ELISA, biotin-CD47-ECD on coated SIRPα-hFc; Ab 8 nM
Description: as §3

[24] = target: T2, His-tagged CD47 recombinant protein, …; assay: ELISA on coated CD47-His; Ab 66.667 nM
Description: as §2

[25] = target: T1, biotin-labeled CD47 extracellular …; assay: blocking ELISA, biotin-CD47-ECD on coated SIRPα-hFc; Ab 200 nM
Description: as §3

[26] = target: T3, cynomolgus CD47, on CHOK1-cCD47 stable …; assay: FACS CHOK1-cCD47; Ab 1.6 nM
Description: as §1

[27] = target: T1, biotin-labeled CD47 extracellular …; assay: blocking ELISA, biotin-CD47-ECD on coated SIRPα-hFc; Ab 1.6 nM
Description: as §3

[28] = target: T4, human CD47, full length, on transfected …; assay: FACS CHOK1-hCD47; Ab 1.6 nM
Description: as §1

[29] = target: T2, His-tagged CD47 recombinant protein, …; assay: ELISA on coated CD47-His; Ab 0 nM (background)
Description: as §2

[30] = target: T2, His-tagged CD47 recombinant protein, …; assay: ELISA on coated CD47-His; Ab 13.333 nM
Description: as §2

[31] = target: T2, His-tagged CD47 recombinant protein, …; assay: ELISA on coated CD47-His; Ab 2.667 nM
Description: as §2

[32] = target: T2, His-tagged CD47 recombinant protein, …; assay: ELISA on coated CD47-His; Ab 0.021 nM
Description: as §2

[33] = target: T3, cynomolgus CD47, on CHOK1-cCD47 stable …; assay: flow cytometry (FACS) on CHOK1-cynoCD47 cells, mean fluorescence intensity
Description: as §1

Row | OD450 nm of CD47 bound to SIRPα [1] | OD450 nm [2] | mean fluorescence intensity [3] | mean fluorescence intensity [4] | OD450 nm [5] | mean fluorescence intensity [6] | mean fluorescence intensity [7] | mean fluorescence intensity [8] | mean fluorescence intensity [9] | mean fluorescence intensity [10] | mean fluorescence intensity [11] | mean fluorescence intensity [12] | OD450 nm of CD47 bound to SIRPα [13] | OD450 nm of CD47 bound to SIRPα [14] | OD450 nm of CD47 bound to SIRPα [15] | mean fluorescence intensity [16] | mean fluorescence intensity [17] | mean fluorescence intensity [18] | mean fluorescence intensity [19] | OD450 nm of CD47 bound to SIRPα [20] | Binder | further results
1 | 2.89 | 0.14 | 6970 | 88.4 | 1.83 | 8230 | 1330 | 7100 | 5610 | 318 | 72.5 | 2060 | 0.08 | 2.92 | 0.79 | 224 | 18.1 | 689 | 6310 | 2.55 | 132D1E5 (antibody, V domains shown, Murine hybridoma antibody purified on protein G) VH: QVQLQQPGAELVRPGSSVKLSCKASGYTFTNNWMHWVKQRPLQGLEWIGNIDPSDSETHYNQKFKDKATLTVDKSSTTAYIQLSSLTSEDSAVYYCARWRGGGRGAMDYWGQGTSVTVSS VL: DVQITQSPSYLAASPGETITINCRTSKNISKFLAWYQEKPGKTNKLLIYSGSTLQSGIPSRFSGSGSGTDFTLTISNLEPEDFAMYYCQQHNEYPWTFGRGTKLEIK | mean fluorescence intensity [21]: 8740; OD450 nm [22]: 2.96; OD450 nm of CD47 bound to SIRPα [23]: 0.07; OD450 nm [24]: 2.88; OD450 nm of CD47 bound to SIRPα [25]: 0.08; mean fluorescence intensity [26]: 6060; OD450 nm of CD47 bound to SIRPα [27]: 0.16; mean fluorescence intensity [28]: 3750; OD450 nm [29]: 0.06; OD450 nm [30]: 2.95; OD450 nm [31]: 3.07; OD450 nm [32]: 0.49
2 | 2.94 | 0.17 | 21200 | 221 | 2.07 | 17300 | 2490 | 15800 | 17500 | 408 | 76 | 3040 | 0.06 | 2.96 | 2 | 223 | 23.3 | 734 | 12300 | 2.84 | 95E2D10 (antibody, V domains shown, Murine hybridoma antibody purified on protein G) VH: QIQLQQSGPELVKPGASMKISCKASGYPFTDYYIHWVKQKPGQGLEWIGWIYPGSGNNKYNEKFKGKATLTVDTSPSTVYMQLSSLTSEDTAVYFCARRAGNYFDYWGQGTTLTVSS VL: NIVMTQSPKSMSRSVGERVTLSCRASENVRTYVFWYQQKPGLSPKLLIYGASNRYIGVPDRFTGSGSATDFTLTISSVQAEDLADYHCGQSYSYPLTFGAGTKLELK | mean fluorescence intensity [21]: 21400; OD450 nm [22]: 2.96; OD450 nm of CD47 bound to SIRPα [23]: 0.09; OD450 nm [24]: 2.93; OD450 nm of CD47 bound to SIRPα [25]: 0.06; mean fluorescence intensity [26]: 7990; OD450 nm of CD47 bound to SIRPα [27]: 0.52; mean fluorescence intensity [28]: 6140; OD450 nm [29]: 0.05; OD450 nm [30]: 2.98; OD450 nm [31]: 3.01; OD450 nm [32]: 0.58
3 | 2.9 | 0.18 | 17200 | 216 | 2.1 | 17700 | 1940 | 16700 | 21200 | 561 | 76.8 | 3250 | 0.06 | 2.89 | 0.31 | 278 | 23.1 | 908 | 13500 | 1.76 | 54G8G6 (antibody, V domains shown, Murine hybridoma antibody purified on protein G) VH: QVQLQQPGADLVKPGASVKMSCKASGYTFTSYWIIWVKQRPGQGLEWIGDINPGRGSPNYNEKFKRKATLTVDTSSSTAYMQLSSLTSEDSAVYYCVRGGLRRFDHWGQGTLVTVSA VL: ENVLTQSPAIMSASPGEKVTMTCRASSSVSSSYLHWYQQKSGASPKLWIYSTSTLASGVPARFSGSGSGTSYSLTISSVEAEDAATYYCQQYSGYPYTFGGGTKLEIK | mean fluorescence intensity [21]: 21300; OD450 nm [22]: 2.99; OD450 nm of CD47 bound to SIRPα [23]: 0.09; OD450 nm [24]: 2.86; OD450 nm of CD47 bound to SIRPα [25]: 0.07; mean fluorescence intensity [26]: 9570; OD450 nm of CD47 bound to SIRPα [27]: 0.13; mean fluorescence intensity [28]: 6180; OD450 nm [29]: 0.05; OD450 nm [30]: 2.94; OD450 nm [31]: 3; OD450 nm [32]: 0.62
4 | – | – | – | – | – | – | – | – | – | – | – | – | – | – | – | – | – | – | – | – | Hu5F9-G4 (antibody, V domains shown) VH: QVQLVQSGAEVKKPGASVKVSCKASGYTFTNYNMHWVRQAPGQRLEWMGTIYPGNDDTSYNQKFKDRVTITADTSASTAYMELSSLRSEDTAVYYCARGGYRAMDYWGQGTLVTVSS VL: DIVMTQSPLSLPVTPGEPASISCRSSQSIVYSNGNTYLGWYLQKPGQSPQLLIYKVSNRFSGVPDRFSGSGSGTDFTLKISRVEAEDVGVYYCFQGSHVPYTFGQGTKLEIKR | EC50 (read off the curve) [33]: ~3 nM
